From patent publication US20180057596A1 (AstraZeneca / MedImmune, published 2018)
Values joined by “and” are separate entries in the source; they are usually repeats but may differ in a detail not shown here. Identical values can stand only once.

What was measured:
[1] = molecular target: T1, human IL-4Rα HIS FLAG (in house HEK-EBNA derived) (human, biotinylated where used as the labelled partner in the DELFIA assay); assay: SPR (BIAcore 2000), value in parentheses under the mean, taken as a single determination
T1 construct: also called HuIL-4Rα; Human IL4-Rα/FLAG/HIS tag
T1 chain: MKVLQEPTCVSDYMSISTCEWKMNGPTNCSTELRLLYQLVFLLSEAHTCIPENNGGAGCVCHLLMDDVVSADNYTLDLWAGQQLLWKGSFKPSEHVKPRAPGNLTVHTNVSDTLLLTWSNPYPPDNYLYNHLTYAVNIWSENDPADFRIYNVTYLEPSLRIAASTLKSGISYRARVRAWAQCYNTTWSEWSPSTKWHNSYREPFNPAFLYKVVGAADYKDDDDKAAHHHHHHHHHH
Method: (§1) In brief, Protein G′ (Sigma Aldrich, P4689) was covalently coupled to the surface of a CM5 sensor chip using standard amine coupling reagents according to manufacturer's instructions (BIAcore). This Protein G′ surface was used to capture a constant amount of purified anti-IL4R• antibodies or isotype control via the Fc domain. Human or cynomolgus IL-4R• HIS FLAG prepared in HBS-EP buffer (BIAcore AB), at a range of concentrations, between 100 nM and 0.2 nM, were passed over the sensor chip surface. […] The resulting sensorgrams were evaluated using BIA evaluation 4.1 software and fitted to 1:1 Langmuir binding model, to provide the relative binding data. The experiments were performed over the course of at least three separate days to calculate an average monovalent affinity.

[2] = molecular target: T2, cynomolgus IL-4Rα HIS FLAG (cynomolgus); assay: as above
T2 construct: also called Cyno IL4Rα HIS FLAG; not shown: HIS and FLAG tags and any vector-encoded linker of the cynomolgus HIS FLAG construct
T2 chain: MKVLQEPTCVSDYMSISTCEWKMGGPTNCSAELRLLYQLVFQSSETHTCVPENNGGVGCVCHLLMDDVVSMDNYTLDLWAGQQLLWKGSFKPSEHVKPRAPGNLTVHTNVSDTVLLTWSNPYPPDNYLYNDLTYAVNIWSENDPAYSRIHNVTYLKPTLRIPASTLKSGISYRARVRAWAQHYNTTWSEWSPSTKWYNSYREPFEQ
Method: as §1

[3] = molecular target: T3, human IL-13Rα2 Fc (R & D Systems, 614-IR-100) (human, UniProt Q14627 27-343, limits assumed); assay: DELFIA epitope competition, no inhibition of biotinylated human IL-4Rα HIS FLAG binding to immobilised IgG
T3 construct: bought protein; not shown: Fc part of the bought fusion
T3 sequence (looked up): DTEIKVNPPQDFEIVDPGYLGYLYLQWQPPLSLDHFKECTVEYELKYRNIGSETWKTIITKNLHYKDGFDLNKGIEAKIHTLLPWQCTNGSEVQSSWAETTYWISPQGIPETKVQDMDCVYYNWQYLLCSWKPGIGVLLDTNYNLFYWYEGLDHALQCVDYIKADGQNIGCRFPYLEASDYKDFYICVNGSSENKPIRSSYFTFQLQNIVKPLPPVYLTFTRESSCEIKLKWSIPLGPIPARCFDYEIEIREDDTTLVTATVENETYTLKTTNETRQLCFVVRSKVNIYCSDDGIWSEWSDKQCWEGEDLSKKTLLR
Method: (§2) Titrations of IL-4R• species including cynomolgus IL-4R• HIS Fc (in house HEK-EBNA derived), human IL-4R• 175V Fc (AstraZeneca), human IL-4R• Fc and murine IL-4R• (both R & D Systems) were tested in each assay to establish the species cross-reactivity of the antibodies. Unbiotinylated human IL-4R• HIS FLAG was used as a positive control. Human and cynomolgus IL-4R• HIS Fc, along with Human IL-4R• 175V Fc, produced overlapping inhibition curves with […] IC₅₀ values. […] Details of the protocol are provided in the Materials and Methods section 4.6.1.
(§3) Purified IgG were adsorbed onto 96-well Maxisorp microtitre plates (Nunc) in PBS at a concentration which gave a significant signal when biotinylated human IL-4R• HIS FLAG was added at approximately its estimated KD for that particular IgG. Excess IgG was washed away with PBS-Tween (0. 1% v/v) and the wells were blocked with PBS-Marvel (3% w/v) for 1 h. […] Unbiotinylated human IL-4R• HIS FLAG was used as a positive control. […] These mixtures were then transferred onto the blocked IgG and allowed to equilibrate for 1.5 h. Unbound antigen was removed by washing with PBS-Tween (0.1% v/v), while the remaining biotinylated human IL-4R• was detected by streptavidin-Europium3+ conjugate (DELFIA• detection, PerkinElmer).

[4] = molecular target: T4, human IL-13Rα1 Fc (R & D Systems, 146-IR-100) (human, UniProt P78552 27-343, limits assumed); assay: as above
T4 construct: bought protein; not shown: Fc part of the bought fusion
T4 sequence (looked up): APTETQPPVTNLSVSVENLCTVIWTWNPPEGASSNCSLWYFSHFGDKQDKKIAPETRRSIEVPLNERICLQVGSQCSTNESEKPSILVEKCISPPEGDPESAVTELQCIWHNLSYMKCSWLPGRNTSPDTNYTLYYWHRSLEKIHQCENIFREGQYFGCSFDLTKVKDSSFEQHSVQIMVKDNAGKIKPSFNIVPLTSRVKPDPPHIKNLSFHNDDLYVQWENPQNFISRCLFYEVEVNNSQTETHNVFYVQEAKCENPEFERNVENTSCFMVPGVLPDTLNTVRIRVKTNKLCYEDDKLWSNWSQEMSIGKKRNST
Method: as §2, §3

[5] = molecular target: T5, murine IL4Rα Fc (R & D Systems 530-MR-100) (murine, UniProt P16382 26-233, limits assumed); assay: as above
T5 construct: bought protein; not shown: Fc part of the bought fusion
T5 sequence (looked up): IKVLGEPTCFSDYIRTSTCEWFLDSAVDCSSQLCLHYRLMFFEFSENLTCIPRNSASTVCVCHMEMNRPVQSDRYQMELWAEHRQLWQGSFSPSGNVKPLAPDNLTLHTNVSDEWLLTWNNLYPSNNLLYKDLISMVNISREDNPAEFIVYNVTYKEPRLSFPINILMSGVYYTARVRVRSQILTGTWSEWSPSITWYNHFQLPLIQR
Method: as §2, §3

[6] = molecular target: T6, Human common gamma chain (sIL-2Rγ) (R & D Systems 384-RG-050-CF) (human, UniProt P31785 23-254); assay: as above
T6 construct: bought protein; also called common gamma chain (IL-2Rγ)
T6 sequence (looked up): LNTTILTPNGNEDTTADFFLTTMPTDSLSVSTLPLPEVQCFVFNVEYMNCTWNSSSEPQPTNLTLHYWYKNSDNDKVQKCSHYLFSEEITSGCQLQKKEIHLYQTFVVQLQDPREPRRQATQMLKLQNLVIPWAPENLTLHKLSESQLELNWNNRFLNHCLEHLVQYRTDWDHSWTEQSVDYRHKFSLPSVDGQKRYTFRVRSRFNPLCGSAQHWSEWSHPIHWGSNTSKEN
Method: as §2, §3

[7] = molecular target: T1, human IL-4Rα HIS FLAG (in house …); assay: SPR (BIAcore 2000), IgG captured on Protein G', receptor as analyte, 1:1 Langmuir
Method: as §1

[8] = molecular target: T2, cynomolgus IL-4Rα HIS FLAG; assay: as above
Method: as §1

Kd [1]: 0.533 nM and 0.531 nM and 0.459 nM
Kd [2]: 4.67 nM and 4.34 nM and 4.41 nM
binding result [3]: no binding
binding result [4]: no binding
binding result [5]: no binding
binding result [6]: no binding
Kd [7]: 0.504 nM
koff [7]: 0.000346 s⁻¹
kon [7]: 688000 M⁻¹ s⁻¹
Kd [8]: 4.41 nM
koff [8]: 0.00108 s⁻¹
kon [8]: 244000 M⁻¹ s⁻¹
B1: Antibody 37GL IgG (antibody, V domains shown)
VH: QVQLVQSGAEVKKPGASVKVSCKASGYAFTSYYMHWVRQAPGQGLEWMGIINPRGGSTSYAQKFQGRVTMTRDTSTSTVYMELSSLRSEDTAVYYCARGKYWMYDWGKGTLVTVSS
VL: QSVLTQPPSVSAAPGQKVTISCSGGGSSIGNSYVSWYQQLPGTAPKLLIYDNNKRPSGIPDRFSGSKSGTSATLGITGLQTGDEADYYCGTWDTSPVWEWPFGTGTKLTVL
notes: germlined IgG; also called Antibody 37 (FGL)
